Target: T1, HER2 Y772dupYVMA peptide on HLA-A*02:01 (human)
T1 peptide: VMAYVMAGV
Assay: multimer staining

B1: HER2 (Y772dupYVMA)/HLA-A*02:01-specific TCR (TCR, V domains shown)
Valpha: AQTVTQSQPEMSVQEAETVTLSCTYDTSESDYYLFWYKQPPSRQMILVIRQEAYKQQNATENRFSVNFQKAAKSFSLKISDSQLGDAAMYFCAYWSVPGGSYIPTFGRGTSLIVHP
Vbeta: EAQVTQNPRYLITVTGKKLTVTCSQNMNHEYMSWYRQDPGLGLRQIYYSMNVEVTDKGDVPEGYKVSRKEKRNFPLILESPSPNQTSLYFCASSLRPGTSIPGELFFGEGSRLTVL
binding result: recognises

Source: patent US20260201034A1 (published 2026)
